Test results taken from the supplement of paper PMC11865577.

What was measured:
Experiment in all cases: pull-down binding Z-score (relative to library population); higher = stronger binding
[1] = system: G-clamp-N3 (biotin conjugate); settings: RNA library: Library-1 (pre-miRNA loops + repeats)
Outline: (§1)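 Cy5- or Cy3-end-labelled RNA library (1 μg) was heat-folded in phosphate/NaCl/KCl buffer and incubated 60 min at 25 °C with streptavidin beads carrying 100 pmol biotin-conjugated small molecule. After three washes, bound RNA was eluted in hot SDS and hybridised 20 h at 55.5 °C to a DNA barcode microarray. Binding was scored by subtracting a beads-only control, averaging barcoded replicate probes after dropping highest and lowest, and converting to a Z-score against library mean and standard deviation.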

[2] = system: TO-3-N3 (biotin conjugate); settings: RNA library: Library-2
Outline: as §1

[3] = system: TO-3-N3-2 (biotin conjugate); settings: RNA library: Library-2
Outline: as §1

TO-N3 (biotin conjugate) = settings: RNA library: Library-2
Outline: as §1

[4] = system: TO-N3-2 (biotin conjugate); settings: RNA library: Library-2
Outline: as §1

Sequence | pull-down binding Z-score [1] | pull-down binding Z-score [2] | pull-down binding Z-score [3] | pull-down binding Z-score (TO-N3 (biotin conjugate)) | pull-down binding Z-score [4]
GGAACACUAUAUUAAUCAGGUUUCC [hsa-mir-6509] | -0.0674 | -0.609 | -0.256 | -0.631 | -0.706
GGAAGAAGGCUGAGGGAGAUGCCUUCUUCC [hsa-mir-6512] | 0.436 | -0.455 | -0.106 | -0.155 | 1.02
GGAAGACACAUGAGCAGUGCCUCCACUUCACGCCUCUCCC [hsa-mir-6780b] | -1.13 | 0.265 | 0.0363 | 0.543 | 0.746
GGAAGGGAGCCCCAUUUACAGUGGUAACUUCCUUUCC [hsa-mir-5006] | -0.388 | 1.35 | 0.679 | 1.3 | 0.181
GGAAGGGCGCCUGUGCUUCGUCC [hsa-mir-572] | 0.21 | 0.31 | -0.215 | 0.52 | 0.767
GGAAUAGUGCUCCUGGUUGUUUC [hsa-mir-1180] | 0.894 | -0.548 | -0.353 | -0.303 | 0.243
GGAAUCCUACGUGAGGGACAAUCAUUCAGACCCACGUAGCAGUGUUCU [hsa-mir-1299] | 0.0519 | 0.353 | 0.392 | 0.632 | 0.496
GGACAGGGAUUCUUUUCACUGUU [hsa-mir-599] | 1.08 | -0.0902 | 0.0302 | 0.141 | 0.0602
GGACAUCCUUCCAUAGUAAAUAAGCGGUGCC [hsa-mir-8064] | -0.584 | -0.38 | 0.131 | -0.0974 | 0.218
GGACCCUCUCUCUACCUCU [hsa-mir-4315-1_4315-2] | -0.489 | -0.211 | -0.12 | -0.188 | 0.0855
GGACGUCACCACCAUGGCC [hsa-mir-650] | -1.19 | 0.0495 | 0.247 | 0.232 | 0.358
GGACUCAGCCCUGUGCUGAGCCC [hsa-mir-5587] | -0.0279 | 0.722 | -0.313 | 0.532 | -0.961
GGACUUGCGGUUCA [hsa-mir-8057] | -1.11 | -0.0023 | -0.281 | -0.0278 | 0.109
GGAGAAGACUUUUCCUUUCCUCC [hsa-mir-4660] | -0.415 | -0.1 | -0.212 | -0.139 | -0.545
GGAGACACUUUCACUAUAUAUAGUGGCUCC [hsa-mir-3156-2] | -0.175 | -0.948 | -0.571 | -1.34 | -1.03
GGAGACACUUUUACUAUAUAUAGUGGCUCC [hsa-mir-3156-1] | -0.0968 | -1.09 | -0.555 | -1.5 | -1.51
GGAGACCCUAUACAUACCUGUUUCC [hsa-mir-5581] | -2.1 | -0.408 | -0.187 | -0.37 | -0.354
GGAGACGGGUCUUUCUC [hsa-mir-1208] | -1.52 | 0.816 | 0.466 | 1.04 | 0.758

Sequence | pull-down binding Z-score [1] | pull-down binding Z-score [2] | pull-down binding Z-score [3] | pull-down binding Z-score (TO-N3 (biotin conjugate)) | pull-down binding Z-score [4]
GGAGAGGAUCCACCUGUCCUGUCC [hsa-mir-6165] | 0.202 | 0.416 | -0.113 | 0.374 | 0.393
GGAGAGUAUGGUCACAGCAGCAUCCUCC [hsa-mir-6780a] | 0.186 | -0.0714 | -0.326 | -0.0981 | 0.36
GGAGAUCGUACC [hsa-mir-4430] | -0.504 | -0.109 | -0.372 | -0.107 | -0.15
GGAGAUUGGAGUGGCCAGUGUUCCUAAACAAUUC [hsa-mir-4263] | -0.451 | 0.0793 | 0.226 | 0.387 | 0.663
GGAGCAGACAGACCCAACCUCAUGCUCC [hsa-mir-6763] | -0.993 | 0.0429 | -0.471 | 0.219 | 0.247
GGAGCCCGAGCAGCCGCGGUGAA [hsa-mir-7706] | -1.54 | 1.29 | 0.551 | 2.17 | 2.55
GGAGCCUUCCCCAGAGGAGUCAGGCC [hsa-mir-4312] | 0.386 | 0.273 | -0.0198 | 0.698 | 1.41
GGAGCUCAGCACCUGCCUGCCACCCACGCAGACCAGCCCCUGCUCUGUUCCCACAG [hsa-mir-4648] | -0.622 | 0.85 | 0.329 | 1.56 | 1.9
GGAGCUCUGUCCUGUCUCACUCAUUGCUCC [hsa-mir-6749] | -0.199 | -0.331 | -0.272 | -0.473 | 0.177
GGAGCUCUGUGCCUUUGGGUCCUGGUGAGCUCU [hsa-mir-6070] | 0.246 | 0.271 | -0.129 | 0.413 | 0.681
GGAGCUGGCUGCUGGCCUCAGUUCU [hsa-mir-5001] | -1.38 | -0.269 | -0.449 | 0.0865 | 1.05
GGAGGCACUGCCAGGGCUGCCCAC [hsa-mir-1202] | -0.43 | 0.521 | 0.277 | 1.21 | 2.09
GGAGGCAUGAAUGAGCCAUCUUUCCAAUGCCUUUC [hsa-mir-4743] | -1.03 | -0.573 | -0.332 | -0.118 | 0.952
GGAGGCCCCGCCCUGCUGCCGACCCUGUGGAGCGGAGGGUGAAGCCUCC [hsa-mir-3180-5] | 0.844 | 0.326 | 0.0715 | 1.1 | 1.98
GGAGGCCCCGCUCUGCUGCCGACCCUGUGGAGCGGAGGGUGAAGCCUCC [hsa-mir-3180-4] | 1.15 | 0.3 | 0.118 | 0.553 | 1.24
GGAGGGUGAGCUUUCUGAAAACCCCUCC [hsa-mir-188] | 0.536 | 0.345 | 0.358 | 0.328 | -0.0757
GGAGUCCUCUAGACACC [hsa-mir-6510] | -0.716 | 0.483 | -0.348 | 0.373 | -0.175
GGAGUUGAUGCACAGUUAUCCAGCUCC [hsa-mir-337] | -0.406 | -0.577 | -0.326 | -0.495 | -0.0382
